No end group written: not given here.
Experiments:
[1] = microCT physical characterization of 3D printed PCL constructs; format: physicochemical; settings: melt-extruded 4-layer crosshatch scaffold
Procedure: The 3D printed PCL constructs were fabricated by melt extrusion with an EnvisionTEC 3D Bioplotter Manufacturer (Gladbeck, Germany). The polymer of interest was placed in a metal cartridge, heated to 85-95° C., and extruded through a 27G needle at 4.9-5.1 bar pressure, 4.0 mm/s deposition speed, and 0.4 s pre-flow and post-flow, with imaging after each layer. Constructs were printed as a cylindrical, alternating crosshatch pattern with 4 layers of 5 mm diameter and 220 μm thickness, producing scaffolds with total dimensions of 5 mm diameter and 0.88 mm height. The porosity, average fiber diameter, and average pore diameter of each construct was assessed by microcomputed tomography (μCT) using a Bruker SkyScan 1272 (Billerica, MA). Scans were acquired at a voltage of 40 kV and a current of 250 μA, with a rotation step size of 0.4°, 8 μm/pixel, frame averaging of 6, and random movement of 10. Reconstruction, slicing, and analysis were performed in Bruker NRecon and CTAn software (Billerica, MA) and LabView (Austin, TX). For quantification of physical architectural properties, a proportional volume of interest was set at 75% scale of the x, v, and z axes, equally spaced from the scaffold edges.

[2] = tested on: Rat bone marrow derived MSCs; experiment: PicoGreen assay (DNA content) of MSC-seeded printed scaffolds; format: cell-based; settings: osteogenic and osteochondral media, up to 28 days, FIG. 5A
Source text: (§1) Rat bone marrow derived MSCs (mesenchymal stem cells) were harvested by aspiration of bone marrow from the tibia of five 6-8 week old male Fischer 344 rats from Charles River Laboratories (Wilmington, MA), in accordance with protocols approved by the Rice Institutional Animal Care and Use Committee and in agreement with the animal care and use guidelines set forth by the National Institutes of Health. Cells from all rats were pooled to minimize inter-animal variability. Adherent cells were cultured in growth medium (DMEM with 10% v/v FBS and 1% v/v antibiotic-antimycotic) inside a humidified incubator at 37° C. and 5% CO2, and cryopreserved in liquid N2 until point of usage. All MSCs were used at Passage 3. Printed constructs were sterilized by exposure of both sides to UV light for 3 h, immersion in a sterile gradient (100%, 75%, 50%, 25%, 0%) of ethanol and PBS, and two additional washes in PBS. […] After weighing, each scaffold was frozen at −20° C. until ready for characterization. […] After homogenization, the proteinase K and acetic acid suspensions were allowed to digest for 16 h at 65° C. and room temperature, respectively, followed by quantification of biochemical content using assay kits. […] The bioactivity of PCL-peptide composites was determined by seeding MSCs on 3D printed constructs and investigating their ability to promote bone- and cartilage-specific ECM deposition in vitro. […]

[3] = tested on: Rat bone marrow derived MSCs; experiment: Arsenazo III assay (bone-specific mineralization) of MSC-seeded printed scaffolds; format: cell-based; settings: mixed osteochondral medium
Source text: as §1

[4] = tested on: Rat bone marrow derived MSCs; experiment: DMMB assay (cartilage-specific sulfated glycosaminoglycans) of MSC-seeded printed scaffolds; format: cell-based
Source text: as §1, with “PBS. MSCs were seeded on the scaffolds by pipetting 30 μL of a 3.3×10^6 cells/mL suspension on top of each scaffold in a low-attachment 24-well plate. After 2 h, 970 μL of growth medium was gently added to each well. After 24 h of cell attachment, the growth medium was replaced with either chondrogenic, osteogenic, or osteochondral medium. Parallel chondrogenic (PCL-alkyne, PCL-NC) and osteogenic (PCL-alkyne, PCL-GHK) studies were conducted, in which scaffolds were cultured in both tissue-specific medium as well as mixed osteochondral medium.” for “PBS.”

Row | Substance | Average Fiber Diameter [1] [μm] | Average Pore Diameter [1] [μm] | Porosity [1] [%] | DNA content normalized to scaffold mass (cell proliferation) [2] | Bone-specific calcium content normalized to cellular content (mineralization per cell) ([3]; FIG. 5B) | Bone-specific calcium content normalized to scaffold mass (scaffold mineralization) ([3]; FIG. 5C) | sGAG content normalized to cellular content (sGAG deposition per cell) ([4]; chondrogenic medium, up to day 28, FIG. 5D) | sGAG content normalized to cellular content (sGAG deposition per cell) ([4]; mixed osteochondral medium, over time, FIG. 5D) | sGAG content normalized to scaffold mass ([4]; serum-free chondrogenic medium, FIG. 5E)
1 | PCL-BMPm: PCL-alkyne click-conjugated to azide-terminated bone morphogenetic protein mimetic peptide (SEQ ID NO: 1, GGGRHVRISRSL) (GGGRHVRISRSL-NH2; not fully specified (N-terminus); also: N-terminal azide click-conjugated to PCL-alkyne) | 262 ± 48 | 419 ± 37 | 70.7 ± 4.2 | – | – | – | – | – | –
2 | PCL-NC: PCL-alkyne click-conjugated to azide-terminated N-cadherin peptide (SEQ ID NO: 3, GGGHAVDI) (GGGHAVDI-NH2; not fully specified (N-terminus); also: N-terminal azide click-conjugated to PCL-alkyne) | 200 ± 9 | 432 ± 31 | 71.8 ± 3.7 | statistically lower proliferation | greater mineralization per cell | did not produce statistically significant effects on scaffold mineralization | large spike in cartilage-specific sGAG deposition per cell by day 28 | maintained a constant level of sGAG deposition per cell | statistically significant increase in mass-normalized sGAG content
